Source: PMC3983046

Tests used:
Ash2LN K225E = Ash2LN K225E (human, UniProt Q9UBL3 95-280, K225E); assay: EMSA
Ash2LN K229E = Ash2LN K229E (human, UniProt Q9UBL3 95-280, K229E); assay: EMSA
Sequence of Ash2LN K229E (Q9UBL3 95-280 K229E): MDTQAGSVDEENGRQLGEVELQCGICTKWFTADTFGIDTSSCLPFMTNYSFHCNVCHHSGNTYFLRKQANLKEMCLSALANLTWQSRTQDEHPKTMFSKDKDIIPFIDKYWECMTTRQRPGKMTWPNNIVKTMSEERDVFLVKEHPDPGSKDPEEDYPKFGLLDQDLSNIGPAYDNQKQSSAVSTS

Sequence of Ash2LN K225E (Q9UBL3 95-280 K225E): as the sequence (Q9UBL3 95-280 K229E) above, with K131E, E135K counted along it

B1: HS2 (dsDNA)
DNA 1: GCAATGCTGAGTCATGATGAGTCATGCTGAGGCTTAGGGTGTGTGC
DNA 2: GCACACACCCTAAGCCTCAGCATGACTCATCATGACTCAGCATTGC
binding result (Ash2LN K225E): no binding
binding result (Ash2LN K229E): no binding
